Test system: RepN (N-terminal 191 residues of TYLCV Rep) (Tomato yellow leaf curl virus)
Experiment: EMSA
Settings: 10 mM Tris-HCl, 100 mM NaCl, 5 mM MgCl2, 0.1 mM ZnCl2, pH 7.5, on ice

**Q.** With “TYLCV replication origin DNA containing Rep-binding direct repeats” as the substance, how does the Kd read?
**A.** Its Kd is 30 nM.

Reference: US20150173367
